Results on five variants are retold here after IntAct's records for PubMed 23084749.

The labels stand for the following.
B1: Protein deacetylase HDAC6 (Homo sapiens), Q9UBN7 (parent)
chain: MTSTGQDSTTTRQRRSRQNPQSPPQDSSVTSKRNIKKGAVPRSIPNLAEVKKKGKMKKLGQAMEEDLIVGLQGMDLNLEAEALAGTGLVLDEQLNEFHCLWDDSFPEGPERLHAIKEQLIQEGLLDRCVSFQARFAEKEELMLVHSLEYIDLMETTQYMNEGELRVLADTYDSVYLHPNSYSCACLASGSVLRLVDAVLGAEIRNGMAIIRPPGHHAQHSLMDGYCMFNHVAVAARYAQQKHRIRRVLIVDWDVHHGQGTQFTFDQDPSVLYFSIHRYEQGRFWPHLKASNWSTTGFGQGQGYTINVPWNQVGMRDADYIAAFLHVLLPVALEFQPQLVLVAAGFDALQGDPKGEMAATPAGFAQLTHLLMGLAGGKLILSLEGGYNLRALAEGVSASLHTLLGDPCPMLESPGAPCRSAQASVSCALEALEPFWEVLVRSTETVERDNMEEDNVEESEEEGPWEPPVLPILTWPVLQSRTGLVYDQNMMNHCNLWDSHHPEVPQRILRIMCRLEELGLAGRCLTLTPRPATEAELLTCHSAEYVGHLRATEKMKTRELHRESSNFDSIYICPSTFACAQLATGAACRLVEAVLSGEVLNGAAVVRPPGHHAEQDAACGFCFFNSVAVAARHAQTISGHALRILIVDWDVHHGNGTQHMFEDDPSVLYVSLHRYDHGTFFPMGDEGASSQIGRAAGTGFTVNVAWNGPRMGDADYLAAWHRLVLPIAYEFNPELVLVSAGFDAARGDPLGGCQVSPEGYAHLTHLLMGLASGRIILILEGGYNLTSISESMAACTRSLLGDPPPLLTLPRPPLSGALASITETIQVHRRYWRSLRVMKVEDREGPSSSKLVTKKAPQPAKPRLAERMTTREKKVLEAGMGKVTSASFGEESTPGQTNSETAVVALTQDQPSEAATGGATLAQTISEAAIGGAMLGQTTSEEAVGGATPDQTTSEETVGGAILDQTTSEDAVGGATLGQTTSEEAVGGATLAQTTSEAAMEGATLDQTTSEEAPGGTELIQTPLASSTDHQTPPTSPVQGTTPQISPSTLIGSLRTLELGSESQGASESQAPGEENLLGEAAGGQDMADSMLMQGSRGLTDQAIFYAVTPLPWCPHLVAVCPIPAAGLDVTQPCGDCGTIQENWVCLSCYQVYCGRYINGHMLQHHGNSGHPLVLSYIDLSAWCYYCQAYVHHQALLDVKNIAHQNKFGEDMPHPH
partner: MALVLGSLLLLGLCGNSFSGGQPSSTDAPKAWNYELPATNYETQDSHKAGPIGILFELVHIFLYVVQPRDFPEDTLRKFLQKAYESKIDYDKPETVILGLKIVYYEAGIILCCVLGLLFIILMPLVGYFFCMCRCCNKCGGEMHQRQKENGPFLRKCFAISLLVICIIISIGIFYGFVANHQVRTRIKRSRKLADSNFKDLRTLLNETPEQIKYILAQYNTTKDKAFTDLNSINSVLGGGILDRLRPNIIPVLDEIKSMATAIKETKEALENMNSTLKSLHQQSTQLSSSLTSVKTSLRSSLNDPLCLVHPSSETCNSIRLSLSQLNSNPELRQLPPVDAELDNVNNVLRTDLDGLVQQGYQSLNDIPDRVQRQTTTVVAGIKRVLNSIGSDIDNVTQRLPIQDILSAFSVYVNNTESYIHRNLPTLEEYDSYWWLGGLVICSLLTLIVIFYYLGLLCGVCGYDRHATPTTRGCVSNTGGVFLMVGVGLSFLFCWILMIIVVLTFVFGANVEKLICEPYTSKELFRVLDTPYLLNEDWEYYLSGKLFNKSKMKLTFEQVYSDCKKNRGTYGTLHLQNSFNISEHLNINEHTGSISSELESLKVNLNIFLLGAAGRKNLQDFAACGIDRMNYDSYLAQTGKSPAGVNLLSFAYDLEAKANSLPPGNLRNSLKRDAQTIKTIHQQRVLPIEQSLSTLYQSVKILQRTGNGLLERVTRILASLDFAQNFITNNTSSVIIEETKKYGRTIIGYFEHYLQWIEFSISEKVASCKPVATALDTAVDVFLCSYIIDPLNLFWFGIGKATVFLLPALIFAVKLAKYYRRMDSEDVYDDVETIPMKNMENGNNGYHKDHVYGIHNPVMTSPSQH

This test covers variants of B1. The conditions noted are these: with prom1_human PROM1, O43490.
H216A;H611A: the “effect of a mutation on the interaction” value is recorded as “with no effect”.

Consider Y570E, for which the “effect of a mutation on the interaction” value is given as “disrupting interaction strength”. As for Y570A, the entry is “with no effect”.

For S568E, the “effect of a mutation on the interaction” value was “disrupting interaction strength”.

As to S568A, the “effect of a mutation on the interaction” value was “with no effect”.
